Assay results from the DeepSol protein solubility set.

Test: soluble on expression in E. coli; label from the status in PepcDB or PDB records

Soluble on expression in E. coli, not soluble:
VPSPDDTEVTVARLTSMSSAEEPLTAGRDGLLSLLRNGQLPSRGAKAPQRERYQRIVAAAMELASEGGYDAVQMRAIADRAGVALGTVYRYFPSKNHMLVMGLLMVFEGMRSRFEDVAIPGDTPSERILFVLRKNTEVLEKDRPRYEALVRAFMFADASASAELDAFGALMTEMFAKTIGVEQISDDQLNAIRVIGDVWMSSLVSWVAGRISVDEVMAHLGLAVRLVFRRLGG, MASPLYLHSSDGPENLITNVQLKGENYEDWAKHVRNASRTKQKLGFIDGTLEKPTKEDDMEQ, MHEYYYIYWYLSEFLYAWLMSTLSRADGSQMAEERIMEEQQKGRSSKKTKKKKKVRPLSREITMSQAYQNMCAGMFKTMVAFDMDGKVRKPKFELDSEQVRYEHRFAPFNSVMTPPPVHYLQFKEMSDLNKYSPPPQSPELYVAASKHFQQAKMILENIPNPDHEVNRILKVAKPNFVVMKLLAGGHKKESKVPPEFDFSAHKYFPVVKLVLEHHHHHH, QRDDVTGVQTLAGNLDPTQWTKTKSLSPLSGSLDPLDYTQRLALIPQRHFSGAGDEMIPTELAERYNRLLGNTACSQLIIVAGATHETGWEEAWKVWRGL, MGSDKIHHHHHHMVNQNQWRQWGCKVIDIEKAALEHLYQFVDSDAFSQACELILQCKGKVIVMGMGKSGHIGNKISATLASTGTPAFFVHPGEASHGDLGALAKEDIILAISNSGESSEILTLLPVIQRMGVPVIAITGKPESNMAKLAKIHLCIQVPEEACPLGLAPTSSTTATLVMGDALAVALLQAKGFTQDDFALSHPGGSLGRKLLLKVSDVMHQDDRLPCVPHDICITEALYEISKKGLGMTAVVDANQCLVGIFTDGDLRRVIDAEVNLRTTPIEQVMTKNCVTTTAGILAAQALQVMESKNINGLIVVNEQQQPIGALNMLDMVKAGVI, MGSDKIHHHHHHMTLTSDSWLTLIVSLPSASATARMRIWRAVKALGCAALRDGAYLLPAQAEQAAQLQMLADEALQEGGQAWLLQVQALDLAEQATFQALFDRTADYTPWLEELAQARQTLSALSAAELQRTQRKHARAYEVIRKIDFFPGETSIRADAQWRDFANALESMQSPGEPQPMAGRIARRDRMQYQGRVWATRRHLWVDRVASAWLIQRFIDPHARFLWLNTAADCPSDALGFDFDGATFSHVGERVTFEVLLASFGLEDDRGLSRLGAMVHALDVGGATTPEASGFEAVLAGARKRWPDDDALLVDIGGVLDSLHAHFSSSRKT, MSPSLLGSSFLRSASGNFTKFASIRNAHFLSSVPMKKRGVDGNLPKDYFENKTVVVYFSAGWCGSCKFLTPKIKKFYNAVKESDAGKNLEIVWVSKDKEAAHQEEYYEKNLPDWPYIPFGDENIQKLSEKYKAVVIPVLKLVNSNGDVVHDRVRADVEAGIKADPVKTMEEWKKLLNQ, MTEVIAYLIEHFQDFDTCPPPEDLGMLLEEAGFDTMEIGNTLMMMEVLLNSSEFSAEPADSGALRVYSKEETDNLPQEVMGLMQYLIEEKAVSCEQREIIIHALMHIPGDEITVDTAKVLTLLLLWANKSELPVLVGDELMSALLLDNKPTMN, MDLSEDQIRGLPHHELLGHFLQMREEFNEFQTSSAEIEKMMDSELDDLKTQLKKAETRVQQMTTEQIRNKDRQDDSRVQFAQVEEQLRRENSHLHEQCESQRERIRKLEQRNDVLETSERNKEYLASDLGSKLDHAIEKIAMLESELYERQVAAEEMHRLREEQLRTTERPRLIVEPLRNDPEILPDEPSPGPSKEEFKMSSEDVFMEDVQHHEDVRMEETIAKIDEVRIDDNKNIQEKSQRVSTGTGAGACINRIVKDLMTKVERLDSILSTIRVSNNSSNNNSSHLTTTRA, MGHHHHHHSHMNKHQKPVLTGQRFKTRKRDEKEKFEPTVFRDTLVQGLNEAGDDLEAVAKFLDSTGSRLDYRRYADTLFDILVAGSMLAPGGTRIDDGDKTKMTNHCVFSANEDHETIRNYAQVFNKLIRRYKYLEKAFEDEMKKLLLFLKAFSETEQTKLAMLSGILLGNGTLPATILTSLFTDSLVKEGNEAPVFSPVRQQKKNKVTDS

Soluble on expression in E. coli, soluble:
MSLRSELPEGFFGPREWARLNAVADIIPGFPHTDFDTANGAEALAEADILLAAWGTPSLTRERLSRAPRLKMLAYAASSVRMVAPAEFWETSDILVTTAASAMAVPVAEFTYAAIIMCGKDVFRLRDEHRTERGTGVFGSRRGRSLPYLGNHARKVGIVGASRIGRLVMEMLARGTFEIAVYDPFLSAEEAASLGAKKAELDELLAWSDVVSLHAPILPETHHMIGARELALMADHAIFINTARGWLVDHDALLTEAISGRLRILIDTPEPEPLPTDSPFYDLPNVVLTPHIAGALGNELRALSDLAITEIERFVAGLAPLHPVHKQDMERMAEGHHHHHH, MSLTGVLGFYTLEEGPTLPSSFTSFANNTGQLSSTALFMFRISAANPTTIEKFGEFTDQDVRNLVAIAHRNNVKIMPVVHNLLYRPGGTTLAKNVVKTLVSDPRNRNAFALNLVNLIERYGFDGVNIDIEDVFIEDSDNLSLLYTEISEVLRPRGYFFSASVPSRVSDEPFNPFSDPFNYSVIGRAVDEFVVMLYNEFGWPGSPPGPAVTIGWMERVLRYTMSKMPRDKIMAAVSVFGFDFNLTTGRNTYVTYQSAINLARRYNSEIIFNEERQTPMFTYRDAQGNQHEVWFEDARSLRSKIQLAWELGIKGVALWRLGMEDPNIWPMLRNEVVVRKFEGHHHHHH, MTENLLAERHALRWVFLYEFPQICNCNEARRNMCAVLGKNSVTYNTMKFWFEKFTKKNYDLDDKPR, MPGLLLCEPTELYNILNQATKLSRLTDPNYLCLLDVRSKWEYDESHVITALRVKKKNNEYLLPESVDLECVKYCVVYDNNSSTLEILLKDDDDDSDSDGDGKDLVPQAAIEYGRILTRLTHHPVYILKGGYERFSGTYHFLRTQKIIWMPQELDAFQPYPIEIVPGKVFVGNFSQACDPKIQKDLKIKAHVNVSMDTGPFFAGDADKLLHIRIEDSPEAQILPFLRHMCHFIEIHHHLGSVILIFSTQGISRSCAAIIAYLMHSNEQTLQRSWAYVKKCKNNMCPNRGLVSQLLEWEKTILGDSITNIMDPLY, MSLSKPLFIFEMANNHMGNVEHGVALIRAIRESCQGFDFDFGFKLQYRNLDTFIHSSFKGRDDVKYVKRFEETRLQPEQMQKLVAEMKANGFKAICTPFDEESVDLIEAHGIEIIKIASCSFTDWPLLERIARSDKPVVASTAGARREDIDKVVSFMLHRGKDLTIMHCVAEYPTPDDHLHLARIKTLRQQYAGVRIGYSTHEDPDLMEPIMLAVAQGATVFEKHVGLPTDQYGINNYSANPEQVRRWLAAAARALAMLGDGEDDAVSETEQASLRSLRRGVFATRPVAAGEALTADNVSFAFPPVEGQLTANEWSKYVRYTAKTPIAADAPVMAADLEPVNEGHHHHHH, MSLAKYKRVVLKLSGEALAGEQGYGIDPEVIQSIASQIKEIVELDVEVAVVVGGGNIWRGMAGSAKGMDRATADYMGMLATVMNSLALQDSLENLDVQSRVQTSIEMRQVAEPYIRRRAIRHLEKKRVVIFAAGTGNPYFSTDTTAALRAAEIEAEVILMAKNKVDGVYNAEPSVDVNAKKYTSISYLDVLKEGLAVMDSTASSLCMDNNIPLIVFSIMEEGNIKKAVLGEEIGTVVRGSNEGHHHHHH, MSLMKRQFEDVTRIVIKIGTSSLVLPTGKINLEKIDQLAFVISSLMNKGKEVILVSSGAMGFGLDILKMEKRPTNLAKQQAVSSVGQVAMMSLYSQIFAYYQTNVSQILLTRDVVVFPESLANVTNAFESLISLGIVPIVNENDAVSVDEMDHATKFGDNDRLSAVVAGITKADLLIMLSDIDGLFDKNPTIYEDAQLRSHVANITQEIIASAGGAGSKFGTGGMLSKVQSAQMVFENKGQMVLMNGANPRDILRVLEGQPLGTWFKQIEEVRHDEGHHHHHH
